# Measured values published in paper PMC7585734, “Site-specific epitope insertion into recombinant proteins using the MAP tag system” (Journal of Biochemistry, 2020).
# T1: MAP tag peptide (14-residue) (Mus musculus)
# T1 construct: 14-residue MAP tag derived from mouse podoplanin; also called MAP14 peptide; MAP peptide; source: synthetic peptide; also conjugated to Sepharose
# T1 chain: GDGMVPPGIEDKIT
# T2: Fn10-nMAP8 (Mus musculus (MAP tag), chimera)
# T2 construct: MAP8 tag, the N-terminal 8 residues of the MAP tag derived from mouse podoplanin, at the N-terminus; tenth fibronectin type III domain (Fn10) of human fibronectin, residues 1417-1509; disulphide-linked dimer via the Fc; also called N-terminally MAP-tagged Fn10-Fc; source: Expi293F, transiently transfected, culture supernatant
# T2 chain: GDGMVPPG
# T3: Fn10-nMAP14 (Mus musculus (MAP tag), chimera)
# T3 construct: original 14-residue MAP tag derived from mouse podoplanin, at the N-terminus; tenth fibronectin type III domain (Fn10) of human fibronectin, residues 1417-1509; disulphide-linked dimer via the Fc; also called N-terminally MAP-tagged Fn10-Fc; source: Expi293F, transiently transfected, culture supernatant
# T3 chain: GDGMVPPGIEDKIT
# T4: Fn10-iFG-G (mouse podoplanin MAP8 tag (carried in …, chimera))
# T4 construct: Fn10 of human fibronectin up to Gly1494 of the FG loop; extra Gly residue(s) before the tag; MAP8 tag, derived from mouse podoplanin; extra Gly residue(s) after the tag; Fn10 of human fibronectin from Ser1496; As Fn10-iFG with the inserted MAP8 flanked by extra Gly residues at both ends; source: Expi293F, transiently transfected, culture supernatant
# T4 chain: GDGMVPPG
# Experiments:
# [1] = target: T1, MAP tag peptide (14-residue); assay: pull-down; purified Fv-clasp samples mixed with MAP14 peptide-conjugated Sepharose, 1 h at room temperature; washed three times with TBS (20 mM Tris pH 7.5, 150 mM NaCl); 15% SDS-PAGE, Coomassie; details: both partners purified
# Fn10-nMAP8 = target: T2, Fn10-nMAP8; assay: pull-down; PMab-1 immobilised on Sepharose; culture supernatants of transfected Expi293F cells; washed three times with TBS; 12.5% non-reducing SDS-PAGE, Coomassie; details: one partner purified
# Fn10-nMAP14 = target: T3, Fn10-nMAP14; assay: as above; details: one partner purified
# Fn10-iFG-G = target: T4, Fn10-iFG-G; assay: as above; details: one partner purified
Binder,binding result [1],binding result (Fn10-nMAP8),binding result (Fn10-nMAP14),binding result (Fn10-iFG-G)
"PMab-1(QQ) Fv-clasp (other, rat | human, VH domain of rat anti-MAP monoclonal antibody PMab-1; SARAH domain of human Mst1 (anti-parallel coiled coil of the Fv-clasp format); VL domain (kappa) of rat anti-MAP monoclonal antibody PMab-1; SARAH domain of human Mst1 with S37C; Fv-clasp(v2) format, non-tagged version; also called PMab-1(QQ) Fv-clasp mutant; PMab-1VH(S112C)-SARAH with N43Q and N54Q + PMab-1VL-SARAH(S37C)) VH: QIQLQQSGTVLVKPASSVKISCKASGYSFTSHYMHWIRQQPGQGLEWIGWISPEQGNTKYNQKFDGKATLTADKSSSIAYMQLSSLTSEDSAVYFCVSWEDWSAYWGQGTLVTVCS VL: DIVLTQSPALTVSLGQRATISCKTNQNVDYYGNSYVHWYQQKPGQKPKLLIYLASNLASGIPARFSGRGSGTDFTLTIDPVEAADTATYYCQQSRDLPNTFGAGTKLELK",binds,–,–,–
"PMab-1, rat anti-MAP monoclonal antibody (IgG2a, kappa) (antibody, V domains shown, VH of PMab-1; as the VH of m1 (PDB 6lz4, VH-SARAH chain) but with Asn43, Asn54 and Ser112 of the parent antibody; constant region of rat IgG2a heavy chain; VL of PMab-1; as the VL of m1 (PDB 6lz4, VL-SARAH chain); constant region of rat kappa light chain; Whole antibody; immobilised on Sepharose for pull-downs, used at 1.0 ug/ml in flow cytometry; copies: 2 + 2) VH: QIQLQQSGTVLVKPASSVKISCKASGYSFTSHYMHWIRQQPGNGLEWIGWISPENGNTKYNQKFDGKATLTADKSSSIAYMQLSSLTSEDSAVYFCVSWEDWSAYWGQGTLVTVSS VL: DIVLTQSPALTVSLGQRATISCKTNQNVDYYGNSYVHWYQQKPGQKPKLLIYLASNLASGIPARFSGRGSGTDFTLTIDPVEAADTATYYCQQSRDLPNTFGAGTKLELK",–,binds,binds,binds
"PMab-1 Fv-clasp (other, rat | human, VH domain of PMab-1 with S112C; as the VH of m1 (PDB 6lz4, VH-SARAH chain) but with Asn at 43 and 54 instead of the Gln of the entry; C112 is already in the entry; SARAH domain of human Mst1; VL domain (kappa) of PMab-1; as the VL of m1 (PDB 6lz4, VL-SARAH chain); SARAH domain of human Mst1 with S37C; as in the VL-SARAH chain of m1 (PDB 6lz4), which already holds the Cys; Parent of m1, without …) VH: QIQLQQSGTVLVKPASSVKISCKASGYSFTSHYMHWIRQQPGNGLEWIGWISPENGNTKYNQKFDGKATLTADKSSSIAYMQLSSLTSEDSAVYFCVSWEDWSAYWGQGTLVTVCS VL: DIVLTQSPALTVSLGQRATISCKTNQNVDYYGNSYVHWYQQKPGQKPKLLIYLASNLASGIPARFSGRGSGTDFTLTIDPVEAADTATYYCQQSRDLPNTFGAGTKLELK",binds,–,–,–
